From patent publication US20170096460

Columns and labels:
ZFP 46025 (synthetic) = experiment: cell_activity; details: AAV9 in mouse striatum, 5 weeks, qRT-PCR
ZFP 45643 (synthetic) = experiment: cell_activity; details: AAV9 in mouse striatum, 5 weeks, qRT-PCR; 70% at 12 weeks

## mutant Htt allele expanded CAG repeat (Q50, 48 CAGs)
ZFP 46025 (synthetic)
  activity: 74 % repression
ZFP 45643 (synthetic)
  activity: 79 % repression
